Results on one substance are retold here after patent publication US20120027757A1.

For test [1], the target named is IR (insulin receptor) expressed on Sf9 insect cells infected with baculovirus (UniProt P06213). As to the kind of experiment: flow cytometry on Sf9 insect cells expressing IR.
For test [2], the target named is IGF-IR expressed on Sf9 insect cells infected with baculovirus (UniProt P08069). As to the kind of experiment: flow cytometry on Sf9 insect cells expressing IGF-IR. (In general: In flow cytometry, cells or beads pass a laser one at a time.)

Regarding Anti-IGF-IR (αIR3) (antibody), the MFI (Mean fluorescence intensity) in test [1] stood at 32; in test [2], 35.
